From article PMC11323569 (mBio, 2024) come the findings set out here.

Data set [1] has as its target PrgKEC, extracytoplasmic region of PrgK (residues 273-871) (Enterococcus faecalis (plasmid pCF10)) (UniProt Q5G3P4). Description: […], pH 5.0, 100 mM NaCl; […].
The data set “non-reducing SDS-PAGE” deals with the molecule itself. Description: non-reducing SDS-PAGE.
Data set [2] concerns the molecule itself. Description: […], pH 5.0, 100 mM NaCl; […].

For the molecule “PrgL_(32-208), extracellular domain of PrgL (domain or fragment)”, in data set [1], the stoichiometry N (PrgL32-208 per PrgKEC (1:1)) came out at 1.

B1: PrgK_(CHAP) (residues 723-871) (domain or fragment)
chain: GTPIGGSGSEVFAQYKEKMQPLPTDRETKAGQGWPGNAYAPGNCTWYVFNRFAQLGKSIHPTMGNANQWVHNYSQTPGATLESAPKKGDAVIFTNGVAGSSTQYGHVAYVEHVNSDGSFVISEMNVSGEYSMNWRVLKKEAGEYFMRLN
notes: also called CHAP domain; source: E. coli BL21(DE3), purified (IMAC fractions)
For the molecule B1, the binding result in the data set “non-reducing SDS-PAGE” is on record as “binds”.

B2: PrgKEC, extracytoplasmic region of PrgK (residues 273-871) (domain or fragment)
chain: ASSTQKPAIVQEEEDLTASWTYFTKLDAQHTDDNNLFYSNIDEVLFYMNYRYDDFKLLDMDSTGTKNFETILSELWTALNGKKPDYQLKTMQSLETDKKSSYFIEEEQAKHYQEIKKELGYQTLDDLLSFPVKTDALIVNKRYGYDKSKEKLTLYQGIDVLIEDNQPFHSPMNGQIVSVPDTETLVIEKEKVARLTIRGVNTLRLTKGMDVEEGTFLGNTKNSTVTFQYEKYKKETKDWFFVNPAFYFPRVTYTQTTLLGSADFSPGASVEKRAQAVYDYLSKKGYTKEGISAILGNFSVESGINPKRAEGDYLNPPVGAHGNSWDEPSWLSMGGPQIYGGRFPNILHRGLGLGQWTDTADGGRRHTLLLDYAKGKNKKWYDLQLQLDFIFDGDAPGSRTAADNVARSKVAATIPELTTYFLTVWEGNPGDKLGERIQAAQNWFTFFSRSGTPIGGSGSEVFAQYKEKMQPLPTDRETKAGQGWPGNAYAPGNCTWYVFNRFAQLGKSIHPTMGNANQWVHNYSQTPGATLESAPKKGDAVIFTNGVAGSSTQYGHVAYVEHVNSDGSFVISEMNVSGEYSMNWRVLKKEAGEYFMRLN
notes: also called PrgKEC wild type; extracellular domain of PrgK; source: E. coli BL21(DE3), purified (Ni-NTA, PreScission elution, Superdex-200 SEC)
The term stoichiometry N denotes a count of units in the complex or per binding partner. For the molecule B2, the “stoichiometry N” value in data set [2] is 2 chains in the oligomer (dimer).

B3: PrgK_(SLT-CHAP) (residues 530-871) (domain or fragment)
chain: LLGSADFSPGASVEKRAQAVYDYLSKKGYTKEGISAILGNFSVESGINPKRAEGDYLNPPVGAHGNSWDEPSWLSMGGPQIYGGRFPNILHRGLGLGQWTDTADGGRRHTLLLDYAKGKNKKWYDLQLQLDFIFDGDAPGSRTAADNVARSKVAATIPELTTYFLTVWEGNPGDKLGERIQAAQNWFTFFSRSGTPIGGSGSEVFAQYKEKMQPLPTDRETKAGQGWPGNAYAPGNCTWYVFNRFAQLGKSIHPTMGNANQWVHNYSQTPGATLESAPKKGDAVIFTNGVAGSSTQYGHVAYVEHVNSDGSFVISEMNVSGEYSMNWRVLKKEAGEYFMRLN
As to B3, the binding result in the data set “non-reducing SDS-PAGE” is “binds”.
